Patent publication US20220175781A1, “CD40L COMPOSITIONS AND METHODS FOR TUNABLE REGULATION” (Obsidian Therapeutics, Inc., priority 2019, published 2022)

Key:
HEK293T cells = experiment: Linker length, ER regulated CD40L surface expression, transfected HEK293T cells; type: cell-based, human; conditions: 1 μM Bazedoxifene 24 hours
Method: To explore the effect of linker length in the DD mediated regulation of CD40L, constructs with varying linker lengths were generated. OT-001966, OT-001965, OT-001967, OT-001666 constructs were generated and are presented here in decreasing linker length order. HEK293T cells were transiently transfected with these constructs and treated with 1 μM Bazedoxifene for 24 hours. Median fluorescence intensity, an indicator of surface expression of CD40L, was analyzed by flow cytometry.

T cells (CD4+ and CD8+) = experiment: Regulation of CD40L in T cells by different drug responsive domains; type: cell-based
[1] = system: T cells (CD4 and CD8 positive); experiment: Bazedoxifene dose response, CD40L MFI in CD4 and CD8 positive T cells (day 4, freeze/thaw, restimulation); type: cell-based
Method: Dose response with Bazedoxifene in T cells were conducted for OT-001966, OT-001967, OT-001666. Expression of CD40L was measured at (a) day 4 after transduction, (b) after freezing and thawing the cells or (c) after freezing and thawing the cells followed by restimulation with CD3/CD28 beads. The CD40L MFI (median fluorescence intensity) within CD4 and CD8 positive subpopulations is shown in Table 34 and Table 35 respectively.

Jurkat cells = experiment: Linker length, ER regulated CD40L, % CD40L positive Jurkat cells; type: cell-based
Method: Jurkat cells were lentivirally transduced and 24 hours after transduction were treated with DMSO or 1 μM Bazedoxifene for another 24 hours and analyzed by flow cytometry for surface expression of CD40L. […] In Table 33, SR indicates stabilization ratio.

B1: OT-001966: ER regulated CD40L construct, longest linker (protein)
chain: MSLALSLTADQMVSALLDAEPPILYSEYDPTRPFSEASMMGLLTNLADRELVHMINWAKRVPGFVDLTLHDQVHLLECAWMEILMIGLVWRSMEHPGKLLFAPNLLLDRDQGKCVEGGVEIFDMLLATSSRFRMMNLQGEEFVCLKSIILLNSGVYTFLSSTLKSLEEKDHIHRVLDKITDTLIHLMAKAGLTLQQQHQRLAQLLLILSHIRHMSNKRMEHLYSMKCKNVVPLSDLLLEMLDAHRLGGSGGGSGGGSGMIETYNQTSPRSAATGLPISMKIFMYLLTVFLITQMIGSALFAVYLHRRLDKIEDERNLHEDFVFMKTIQRCNTGERSLSLLNCEEIKSQFEGFVKDIMLNKEETKKENSFEMQKGDQNPQIAAHVISEASSKTTSVLQWAEKGYYTMSNNLVTLENGKQLTVKRQGLYYIYAQVTFCSNREASSQAPFIASLCLKSPGRFERILLRAANTHSSAKPCGQQSIHLGGVFELQPGASVFVNVTDPSQVSHGTGFTSFGLLKL
HEK293T cells
  percentage of cells with high CD40L surface expression, ranking of constructs: highest percentage of cells with high CD40L surface expression
T cells (CD4+ and CD8+); All Cells, 1 uM Baz
  CD40L positive: 58.1%
  MFI: 490
T cells (CD4+ and CD8+); All Cells, DMSO
  CD40L positive: 14%
  MFI: 174
T cells (CD4+ and CD8+); CD4+, 1 uM Baz
  CD40L positive: 62.8%
  MFI: 543
T cells (CD4+ and CD8+); CD4+, DMSO
  CD40L positive: 17%
  MFI: 197
T cells (CD4+ and CD8+); CD8+, 1 uM Baz
  CD40L positive: 42.3%
  MFI: 339
T cells (CD4+ and CD8+); CD8+, DMSO
  CD40L positive: 2.2%
  MFI: 95.6
[1]; CD4+ cells, Day 4, Bazedoxifene 0.01 nM
  CD40L expression (MFI): 415
[1]; CD4+ cells, Day 4, Bazedoxifene 0.1 nM
  CD40L expression (MFI): 499
[1]; CD4+ cells, Day 4, Bazedoxifene 1 nM
  CD40L expression (MFI): 545
[1]; CD4+ cells, Day 4, Bazedoxifene 10 nM
  CD40L expression (MFI): 616
[1]; CD4+ cells, Day 4, Bazedoxifene 100 nM
  CD40L expression (MFI): 1028
[1]; CD4+ cells, Day 4, Bazedoxifene 1000 nM
  CD40L expression (MFI): 1551
[1]; CD4+ cells, Day 4, Bazedoxifene 10000 nM
  CD40L expression (MFI): 1095
[1]; CD4+ cells, Post Thaw, Bazedoxifene 0.01 nM
  CD40L expression (MFI): 183
[1]; CD4+ cells, Post Thaw, Bazedoxifene 0.1 nM
  CD40L expression (MFI): 185
[1]; CD4+ cells, Post Thaw, Bazedoxifene 1 nM
  CD40L expression (MFI): 193
[1]; CD4+ cells, Post Thaw, Bazedoxifene 10 nM
  CD40L expression (MFI): 213
[1]; CD4+ cells, Post Thaw, Bazedoxifene 100 nM
  CD40L expression (MFI): 258
[1]; CD4+ cells, Post Thaw, Bazedoxifene 1000 nM
  CD40L expression (MFI): 292
[1]; CD4+ cells, Post Thaw, Bazedoxifene 10000 nM
  CD40L expression (MFI): 577
[1]; CD4+ cells, Restim, Bazedoxifene 0.01 nM
  CD40L expression (MFI): 340
[1]; CD4+ cells, Restim, Bazedoxifene 0.1 nM
  CD40L expression (MFI): 340
[1]; CD4+ cells, Restim, Bazedoxifene 1 nM
  CD40L expression (MFI): 364
[1]; CD4+ cells, Restim, Bazedoxifene 10 nM
  CD40L expression (MFI): 472
[1]; CD4+ cells, Restim, Bazedoxifene 100 nM
  CD40L expression (MFI): 561
[1]; CD4+ cells, Restim, Bazedoxifene 1000 nM
  CD40L expression (MFI): 741
[1]; CD4+ cells, Restim, Bazedoxifene 10000 nM
  CD40L expression (MFI): 447
[1]; CD8+ cells, Day 4, Bazedoxifene 0.01 nM
  CD40L expression (MFI): 168
[1]; CD8+ cells, Day 4, Bazedoxifene 0.1 nM
  CD40L expression (MFI): 176
[1]; CD8+ cells, Day 4, Bazedoxifene 1 nM
  CD40L expression (MFI): 190
[1]; CD8+ cells, Day 4, Bazedoxifene 10 nM
  CD40L expression (MFI): 212
[1]; CD8+ cells, Day 4, Bazedoxifene 100 nM
  CD40L expression (MFI): 442
[1]; CD8+ cells, Day 4, Bazedoxifene 1000 nM
  CD40L expression (MFI): 669
[1]; CD8+ cells, Day 4, Bazedoxifene 10000 nM
  CD40L expression (MFI): 438
[1]; CD8+ cells, Post Thaw, Bazedoxifene 0.01 nM
  CD40L expression (MFI): 113
[1]; CD8+ cells, Post Thaw, Bazedoxifene 0.1 nM
  CD40L expression (MFI): 117
[1]; CD8+ cells, Post Thaw, Bazedoxifene 1 nM
  CD40L expression (MFI): 121
[1]; CD8+ cells, Post Thaw, Bazedoxifene 10 nM
  CD40L expression (MFI): 148
[1]; CD8+ cells, Post Thaw, Bazedoxifene 100 nM
  CD40L expression (MFI): 204
[1]; CD8+ cells, Post Thaw, Bazedoxifene 1000 nM
  CD40L expression (MFI): 230
[1]; CD8+ cells, Post Thaw, Bazedoxifene 10000 nM
  CD40L expression (MFI): 375
[1]; CD8+ cells, Restim, Bazedoxifene 0.01 nM
  CD40L expression (MFI): 340
[1]; CD8+ cells, Restim, Bazedoxifene 0.1 nM
  CD40L expression (MFI): 340
[1]; CD8+ cells, Restim, Bazedoxifene 1 nM
  CD40L expression (MFI): 364
[1]; CD8+ cells, Restim, Bazedoxifene 10 nM
  CD40L expression (MFI): 472
[1]; CD8+ cells, Restim, Bazedoxifene 100 nM
  CD40L expression (MFI): 561
[1]; CD8+ cells, Restim, Bazedoxifene 1000 nM
  CD40L expression (MFI): 741
[1]; CD8+ cells, Restim, Bazedoxifene 10000 nM
  CD40L expression (MFI): 447
[1]; CD8 positive cells, freeze/thaw followed by restimulation with CD3/CD28 beads
  CD40L expression, ranking of constructs: highest ER regulated CD40L expression
Jurkat cells; 1 μM Bazedoxifene
  Percent of Jurkat cells expressing CD40L: 46%
Jurkat cells; 1 μM Bazedoxifene versus DMSO, % CD40L positive Jurkat cells
  SR: 15.3
Jurkat cells; DMSO
  Percent of Jurkat cells expressing CD40L: 3%
Jurkat cells; Jurkat cells, 1 μM Bazedoxifene 24 hours
  percentage of cells with high CD40L surface expression, ranking of constructs: highest percentage of cells with high CD40L surface expression
